Results reported in patent publication US20170088600A1 (published 2017).
Where a chain is given by its changes, count along the chain named. In names and notes the source's numbering stands. Like-named read-outs stand apart in the source and are kept apart here.

T1: TRAIL-R2-Fc M152A/R154A/K155A (human, UniProt O14763 58-184)
T1 chain: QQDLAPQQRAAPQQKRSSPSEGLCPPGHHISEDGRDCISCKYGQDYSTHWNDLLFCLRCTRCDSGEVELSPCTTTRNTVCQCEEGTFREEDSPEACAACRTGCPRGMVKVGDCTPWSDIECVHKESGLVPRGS

B1: TRAIL-R2-Fc F112A (Fc fusion)
chain: T1 chain with F55A, A95M, A97R, A98K
B2: TRAIL-R2-Fc K155A (Fc fusion)
chain: T1 chain with A95M, A97R
B3: TRAIL-R2-Fc M152A (Fc fusion)
chain: T1 chain with A97R, A98K
B4: TRAIL-R2-Fc E78A/D109A (Fc fusion)
chain: T1 chain with E21A, D52A, A95M, A97R, A98K
B5: TRAIL-R2-Fc V167A (Fc fusion)
chain: T1 chain with A95M, A97R, A98K, V110A
B6: TRAIL-R2-Fc P150A (Fc fusion)
chain: T1 chain with P93A, A95M, A97R, A98K
B7: TRAIL-R2-Fc (human TRAIL-R2 aa 58-184, thrombin site, human IgG1 Fc), wild type (Fc fusion)
chain: T1 chain with A95M, A97R, A98K
B8: TRAIL-R2-Fc D148A (Fc fusion)
chain: T1 chain with D91A, A95M, A97R, A98K
B9: TRAIL-R2-Fc R154A (Fc fusion)
chain: T1 chain with A95M, A98K
B10: TRAIL-R2-Fc L110A/L114A (Fc fusion)
chain: T1 chain with L53A, L57A, A95M, A97R, A98K
B11: TRAIL (TNFSF10) ectodomain (ligand)
chain: TNELKQMQDKYSKSGIACFLKEDDSYWDPNDEESMNSPCWQVKWQLRQLVRKMILRTSEETISTVQEKQQNISPLVRERGPQRVAAHITGTRGRSNTLSSPNSKNEKALGRKINSWESSRSGHSFLSNLHLRNGELVIHEKGFYYIYSQTYFRFQEEIKENTKNDKQMVQYIYKYTSYPDPILLMKSARNSCWSKDAEYGLYSIYQGGIFELKENDRIFVSVTNEHLIDMDHEASFFGAFLVG

How the values were obtained:
Assay in all cases: SPR
UL141 [1] = target: UL141
UL141 [2] = target: UL141; remark: listed apart in the source
UL141 [3] = target: UL141; remark: listed apart in the source
UL141 [4] = target: UL141; remark: listed apart in the source
[5] = target: T1, TRAIL-R2-Fc M152A/R154A/K155A

Binder	Kd (UL141 [1]) [nM]	also measured
B1	630	
B2		Kd (UL141 [2]): 8 nM
B3		Kd (UL141 [2]): 7 nM
B4		Kd (UL141 [3]): 60 nM
B5	15	
B6	8	
B7	6	Kd (UL141 [4]): 5.96 nM
B8	55	
B9		Kd (UL141 [2]): 6 nM
B10	43	
B11		Kd [5]: 7 nM
